According to the RNAGym collection of RNA variant scans (doi:10.1073/pnas.2313332121):

B1: TPR t1 (parent)
chain: GACCAAUCUGCCCUCAGAGCUCGAGAACAUCUUCGGAUGCAGAGGAGGCAGGCUUCGGUGGCGCGAUAGCGCCAACGUCCUCAACCUCCAAUGCAUCCCACCACAUGAUGAUGCCUGAAGAGCCUUGGUUUUUUG

Variants of: B1
Experiment: polymerase ribozyme fitness, log enrichment relative to wild type (log ratio); higher = more active; in vitro selection for triplet polymerase activity
How it was run: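 Only genotypes with ≥10 input reads and ≥1 read per output were kept after Illumina sequencing of input and output libraries. These libraries were PCR-built, transcribed mutants of each subunit of a heterodimeric triplet polymerase ribozyme, each put through one triplicate in vitro selection round with frozen incubation at −7 °C, gel excision of extended constructs, streptavidin-bead capture and RT-PCR. Fitness is a logarithmic ratio of genotype enrichment to wild-type enrichment, from inverse-variance-weighted replicate averages, with the logarithm in base 2.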

| Variant | polymerase ribozyme fitness (log ratio) |
| --- | --- |
| GACCAAUCUGCUCUCAGAGUACGAUAACAUCUUCGGAUGCAGUGGAGGCAGGCUUAGGUGGCGCGAUAGCGCCAACGUCCUCAACCUCCAAUGCAUCCCACCACAUGAUGAUGCAUGAAGUGCCUUGGUAUUUUG [C12U C20U U21A G25U A43U C56A C115A A121U U130A] | -8.29 |
| GACCAAUCUGCUCUUAGAGCUCGAGAACAUCUUCGGAUGCAGAGGAGGCAGGCUUCGGUGCCGCGAUAGCGCCAACGUCCUCAACCUCCAAUGCAUCCCACCAUAUGAUGAUGCCUGAAGAGCCUUGGUUUUUUG [C12U C15U G61C C104U] | -1.43 |
| GACCAAUCUGCUCUUAGAGCGCGAGAACAUCUUCGGAUGCAGAGGAGGCAGGCUUCGGUGGCGCGAUAGCGCCAACGUCCUCAACCUCCAAUGCAUCCCAACACAUGAUGAUGCCUGAAGAGCCUUGGUUUUUUG [C12U C15U U21G C101A] | -3.11 |
| GACCAAUCUGCUCUCAGAGAUCGAGAACAUCUUCGGAUGCAGAGGAGGCAGGCUUCGGUGGCGCGAUAGCGCCAACGUCCUCAACCUCCAAUGCAUCCCACCACAUGAUGAUGCCUGAAGAGCCUUGGUUUUUUG [C12U C20A] | -1.94 |
| GACCAAUCUGCUCUCAGAGCUCGAGAACAUCUUCGGAUGCAGAGGAGGCAGGCUUCGGUGGCGCGUUAGCGCCAACGACCUCAACCCCCAAUGCAUCCCACCACAUGAUGAUGCCUGAAGAGCCUUGGUUUUUUG [C12U A66U U78A U87C] | -0.338 |
| GACCAAUCUGCUCUCAGAGAUGGAGAACAUCUUCGGAUGCAGAGGAGGCAGGCUUCGGUGGCGCGAUAGCGCCAACGUCCUCAACCUCCAAUGCAUCCCACCACAUGAUGAAGCCUGAAGAGCCUUGGUUUUUUG [C12U C20A C22G U112A] | -3.37 |
| GACCAAUCUGCUGUCAGAGCUCGAGAACAUCUUCGGAUGCAGAGGAGGUAGGUUUCGGUGGCGCGAUAGCGCCAACGUCCUCAACCUCCAAUGCAUCCCACCACAUGAUGAUGCCUGAAGAGCCUUAGUUUUUUG [C12U C13G C49U C53U G127A] | -3.32 |
| GACCAAUCUGCUCUCAGAGCUCGAGAACAUCUUCGGAUGCAGAGGAGGCAGGCUUCGGUGGCGCGAUAGCGCCAACGUCCUCACCCUCCAAUGCAUCCCACAACAUGAUGAUGCCUGAAGAGCCUUGGUUUUUUG [C12U A84C C102A] | -1.99 |
| GACCAAUCUGCUCUCAGAGCUCGAGAACAUCUUCGGAUGCAGAGGAGGCAGGCUUCGGUGGCGCGAUAGCGCCGACGUCCUCCACCUCCAAUGCAUCCCACCACAUGAUGAUGACUGAAGAGGGUUGGUUUUUUG [C12U A74G A83C C114A C123G C124G] | -1.02 |
| GACCAAUCUGCUCUCAGAGCUCGAGAACAUCUUCGGAUGCAGAGGAGGCAGGCUUCGGUGGCGCGAUAGCGCCAACGUCCUCCACCUCCAAUGCAUCCCACCACAUGAUGAUGACUGAAGAGGGUUGGUUUUUUG [C12U A83C C114A C123G C124G] | -0.26 |
| GACCAAUCUGCUCUCAGAGCUCGAGAACAUCUUCGGAUGCAGAGGAGGCAGGCUUCGGUGGCGCGAUAGCGCCAACGUCCUCCACCUCCAAUGCAUCCCACCACAUGAUGAUGCCUGAAGAUCCUUGGUUUUUUG [C12U A83C G122U] | 0.68 |
| GACCAAUCUGCUCUAAGAGCUCGAGAACAUCUUCGGAUGCAGCGGAGGCAGGCUUCGGUGGCGCGAUAGCGUCAACGUCCUCAACCUCCAAUGCAUCCCACCACAUGUUGAUGCCUGAAGAGGCUUGGUUUUUUG [C12U C15A A43C C72U A108U C123G] | -6.32 |
| GACCAAUCUGCUCUAAGAGCUCGAGAACAUCUUCGGAUGCAGAGGAGGCAGGCUUCGGUGGCGCGAUAGCGCCAACGUCCUCAACCUCCAAUGCAUCCCACCACAUGAUGAUGCCUGAAGAGCCUUGGUUUUUUG [C12U C15A] | -0.528 |
| GACCAAUCUGCUCUCAGAGCUCGAGAACAUCUUCGGAUGCAGAGGAGGCAGGCUUCGGUGGCGCGAUAGCGCCGACGUCCUCAACCACCAAUGCAUCCCACCACAUGAUGAUGCCUGAAGAGCCUUGGUUUUUUG [C12U A74G U87A] | -0.554 |
| GACCAAUCUGCUCUAAGAGCUCGAGAACAUCUUCGGAUGCAGAGGAGGCAGACUUCGGUGGCGCGAUAGCGCCAACGUCCUCAACCUCCAAUGCAUCCCACCACAUGAUGAUGCCUGAAGAGCCUUGGUUUUUUG [C12U C15A G52A] | -0.639 |
| GACCAAUCUGCUCUCAGAGGUCGAGAACAUCUUCGGAUGCAGAGGAGGCAGGCUUCGGUGGCUCGAUAGCGCCAACGUCCUCAACCUCCAAUGCAUCCCACCACACGAUGAUGCCUGAAGAGCCUUGGUUUUUUG [C12U C20G G63U U106C] | -6.59 |
| GACCAAUCUGCUCUCAGAGAUCGAGAACAUCUUCGGAUGCAGAGGAGGCAGGCUUCGGUGGCGCGAUAGCGCCAACGUCCUCAACCUCCAAUGCAUCCCACCACAUGAUGAUGCCUGAAAAGCCUUGGUUUCUUG [C12U C20A G120A U132C] | -1.48 |
| GACCAAUCUGCUGUCAGAGCUCGAGAACAUCUUCGGAUGCAGAGGAGGCAGGCUUCGGUGGCGCGAUAGCGCCAACGUCCUCAACCUCCAAUGCAUCCCACCACAUGAUGAUGCCUGAAGAGCCUUGGUUUUUUG [C12U C13G] | -0.258 |
| GACCAAUCUGCUCUCAGAGCUCGAGAACAUCUUCGGAUGCAGAGGAGGCUGGCUUCGGGGGCACGAUAGCGCCAACGUCCUCAACCUCCAAUGCAUCCCACCACAUGAUGAUGCCUGAUGAGCCUUGGUUUUUUG [C12U A50U U59G G63A A119U] | -2.52 |
| GACCAAUCUGCUGUCAGAGCUCGAGAACAUCUUCGGAUGCAGAGGAGGCAGGCUUCGGUGGCGCGAUAGCGCCAACGUCCUAAACCUCCAAUGCAUCCCACCACAUGAUGAUGCCUAAAGAGCCUUGGUUUUUUG [C12U C13G C82A G117A] | -2.59 |
| GACCAAUCUGCUCUCAGAGAUCGAGAACAUCUUCGGAUGCAGAGGAGGCAGGCUUAGGUGGCGCGAUAGCGCCAACGUCCUCAACCUCCAAUGCAUCCCACCACAUGAUGAUGCCGGAAGAGCCUUGGUUUUUUG [C12U C20A C56A U116G] | -4.71 |
